# Measured values: the nanobody polyreactivity screen of Harvey et al. (2022)
# Experiment: yeast display, Sf9 membrane polyspecificity reagent, FACS + sequencing; frameworks hold sequencing errors
# In short: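 After 36–48 hours of galactose induction, yeast (Saccharomyces cerevisiae BJ5465) displaying a synthetic nanobody library were stained at 4 °C for 1 hour with 10% biotinylated, detergent-solubilized Sf9 membrane reagent. Streptavidin microbeads enriched the stained cells before FACS sorting into low and high (top ~1%) gates on anti-HA and streptavidin fluorescence. Each clone's polyreactivity label reflects its gate of origin.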
row,Sequence,polyreactivity (PSR sort gate)
1,QVQLVESGGGLVQAGGILRLSCAASGIIFSQYTMGWYRQAPGKESELVAAISYTGGRTYYADSVKGRFTISRDNAMNTVYLQMNSLKPEDTAVYYCAADFPIVWYEEYYWGQGTQVTVSS,high polyreactivity
2,QVQLVESGGGLVQAGGSLRLSCAASGFTFYRYAMGWYRPATGKERELVATISASGGSTYYADSVKGRFTISRDNAKNTVYLQMNSLKPEDTAVYYCAVRYKSWYGFNYWGQGTQVTVSS,high polyreactivity
3,QVQLVESGGGLVQAGGSLRLSCAASGIIFWAYALGWYRQAPGKERELVAVISRGGSTNYADSVKGRFTISRDNAKNTVYLQMNSLKPEDTAVYYCAARYGWGQGTQVTVSS,high polyreactivity
4,QDQLVESGGGLVQAGGSLRLSCAASAFIFSSYAMGWYRQAPGKERELVAAITVRAGRTYYADSVKGRFTISRDNAKYTVYLEMNSLKPEDSAVYYCAADSGLWGYYYWGQGTQVTVSS,high polyreactivity
5,QVQLVQSAGGLVQAGGSLRLSCAASGFTFVKYAMGWYRQAPGKERELLAVISRRGGSTYYADSVKGRFTISRDNAKNTVYLHMNSLKPEDTAVYYCAAVYYLYSAWRYDYWGQGTQVTVSS,high polyreactivity
6,QVQLVESGGGLVQAGGSLRLSCAASGSIVENMGWYRQAPGKERELVAAISSSGDSTYYADSVKGRFTISRDNAKNTVYLQMNSLKPEDTAVYYCAADFYYYKKQYDYWGQGTQVTVSS,low polyreactivity
7,QLQLEESVGGLVQAGVSLRLSCAASGRTFRRYAMGSDRPAPAKERELVATIRSGDNTNYADSVKGRFTISRDNAKNTFYLQMKSLKPEDTAVYYCNRSPKSGQVTYLYSVNAHYDYWGQGTQVTVSS,low polyreactivity
8,QVQLVESGGGLVQAGGSLRLSCAASGSICGWYVLGWYRQAPGKEMELVAAITWSAARTYYADSVKGRFTISRDNAKITVYLQMNSLKPEDTAVYYCAADHVSYQPSCRIFDYWGQGTQVTVSS,low polyreactivity
9,QVQLVESGGGLVQAGGSLRLSCAASGIIFQRNDMGWYRQAPGKERELVANIRDGGITYADSVKGRFTISRDNAKNTVYLQMNSLKPEDTAVYYCARDDTSPGYGDQSSNAAYYYWGQGTQVTVSS,low polyreactivity
10,QVQLVESGGGLVQAGGSLRLSCAASGGTFSSNAMGWYRQAPGKERELVAAIRSTGRTYYADSVKGRFTISRDNAKNTVYLQMNSLKPEDTAVYYCAADLGRTPTGKIGFDYWGQGTQVTVSS,high polyreactivity
11,QVQLVESGGGLVQAGGSLRLICAASGFIFTANVMGWYRQAPGKERELVAAISRSGGSTYYADSVKGRFTISRDNAKNTVYLQMNSLKPEDTAVYYCAKLRRDARYDYWGQGTQVTVSS,high polyreactivity
12,QVQLVESGGGLVQAGGSLRLSCAASGSIFVGFARGWYRQAPGKERELVAAISWSGDSTYYADSVKGRVTISRDNAKKTVYLQLNSLKPEDTAVYYCAVDYAEIGPRREVEYDYWGQGTQVTVSS,low polyreactivity
13,QVQLVESGGGLVQAGGSLRLSCAASGRTIGGYVMGWYRQAPGTERELVAVITISGGSTYYADSVKGRFTISRDNAKNTVYLQMNSLKPEDTAVYYCAARTYYGYDYWGQGTQVTVSS,high polyreactivity
14,QVQLVESGGGLVQAGGSLRLSCAASGSIFGYTTMGWYRQGPGKERELVAAINWSDGHTNYADSVKGRFTISRDNANNTVYLQLNSLKPEDTAVYYCAADWYRSSWTYNYWGQGSQVTVSS,low polyreactivity
15,QVQLVESGGGLVQAGGSLRLSCAASGRIFAPYAMGWYRQAPGQEREFVATITVSGARTRYADSVKGRFTISRDNAKNTVYLQMNSLKPEETAVYYCAASKFYSWRATRKVSYDYWGQGTQVTVSS,high polyreactivity
16,QDQHVESGGGLVQAGGSLRLSCAASGRIYDPYAMGWYRPAPGKERELVATISYSDGSTYYADSVKGRFTISRDNAKNTVYLQMNSLKPEDTAVYYGNAEFVGWWGYPTVLRLEYWGQGTQVTVSS,low polyreactivity
17,QVQLVESGGCLVQAGGSLRLSCAASGITITANAMGWYRQAPRKERELVAAITWSGGSTYYADSVKGRFTISRDNAKNTVYLQMNSLKPEETAVYYCNAEGIGDREYDYWGQGTQVTVSS,low polyreactivity
18,QVQLVESGGGLVQAGGSLRLSCAASGSIFYWYAMGWYRQAPGKERELVAAISRNGGNTYYADSVKGRFTISRDNAKNTVYLQMNSLKPEDTAVYYCAAQLFVRRWMDYWGQGTQVTVSS,low polyreactivity
19,QVQLVESGGGLVQAGGSLRLSCADSGNIFYKYDMGWYRQAPGKERELVATISSDANTKYADSVKGRFTISRDNAKNTVYLHMNSLKPEDTAVYYCNVKDPVVRGALRDPTEYDSWGQGTQVTVSS,low polyreactivity
20,QVQLVESGGGLVQAGGSLRLSCAASGFTFYNNAMGWYRPAPGKERELVAVITSNGGRTYYADSVKGRFTISRDNAKNTVYLQMNSVKPEDTAVYYCAKDYKALYLYHYRISGGDVDYWGQGTQVTVSS,low polyreactivity
21,QVQLVESGGGLVQAGGSLRLSCAASGSTFWPYAMGRYRPAPGKERELGATIRGGGTSTYYADSVKGRVTISRDNAKNTVYLQMNSLKPEDTAGYYCAARGFYTGSYPGYYYWGQGTQVTVSS,high polyreactivity

row,Sequence,polyreactivity (PSR sort gate)
1,QVQLVESGGGLVQAGGSLRLSCAASGLTFGYNAMGWYRQAPGNERELVATISYSGGRTYYADSVKGRFTISRDNAKTTVYLQMNSLKPEDTAVYDCATRQRHWSGEFDYWGQGTQVTVSS,high polyreactivity
2,QVQLQESGGGLVQAGGSLRLSCAASGTISDSGLMGWYRQAPGKERELVAGISSGGITNYADSVKGRFTISRDNAKNKVYLQMNSLKPEDTAVYWGQGTQVTVSS,low polyreactivity
3,QVQLVESGGGLVQAGGSLRLSCAASGRIFFLYAMGWYRQAPGKERELVASINRGGNTNYADSVKGRFTISRDNAKNTVYLHMNSLKPEDTAVYYCAARLVIFYPYSRYYYWGQGTQVTVSS,high polyreactivity
4,QVQLVESGGGLVQAGGSLRLSCAASGRTFPSYTMGWYRQAPGKERELVAAITWTGGSTYYADSVKGRFTISRDNAKNSVYLQMNCLKPEDTAVYYCADDDYWGQGTQVTVSS,low polyreactivity
5,QVQLVESGGGLVQAGGSLRLSCAASGSIQYYAMGWYRQEPGKERELVAAIRFSGGRTYYADSVKGRFTISRDNAKNTVYLQMNSLKPEETAVYYCAAYRSPRRSGAPSQGKFDYWGQVTQVTVSS,high polyreactivity
6,QVQLVESGGGLVQAGGILRLSCAASGSTFAVYAMGWYRQAPGKERELVAAISRSGGRTYYADSVKGRFTISRDNAKNTVYLQMNCLKPDDTAVYYCAAPSTCSYGSDYWGPGTQVTVSS,high polyreactivity
7,QVQLVESGGGLVQAGGSLRLSCAASGRIFAYNDMGWYRQAPGKEREFVAAITWSGTTFSADSVKGRFTISRDNAKNTVYLQMNSLNPEDTAVYYCAAVPYTRWKGADGDYDDVYTEYWGQGTQVTVSS,high polyreactivity
8,QVQLVESGGGLVQAGGSLRLSCAASGIFDYYVMGWYIQAPGKERELVAAISKSVGSTYYADSVKGRFTISRDNAKNTVYLQMNSLKPEDTAVYYCAVENRYRFGYWGQGTQVTVSS,low polyreactivity
9,QVQLVESGGGLVQAGGSLRLSCAASGSTFFFNAMGWYRQAPGKERELVAAITVRSGSTYYADSVKGRFTISRDNAKSTVYLQMNSLKPEDTAVYFCAADYSPGRSVVDYWGQGTQVTVSS,low polyreactivity
10,QVQLHESGGGLVLAGGSLRLSCSASGNISVYGSMGLYRQAPGKEREFVATIDPGTNTNYADSVKDRFSISRDNAKHTVYLQMNSLKPEDTAVYYCAVEAGSDWPYRYWGHGTQVTVSS,low polyreactivity
11,QVQLVESGGGLVQAGGSLRLSCAASGSIFRTNAMGWYRQAPGKEREFVASISSDSGNTYYADSVKGRFTISRDNAKNTVYLQMNSLKPEDTAVYYCARRKVRYWSYRAANYYWGQGTQVTVSS,low polyreactivity
12,QVQLVESGGGLVQAGGSLRFSCAGSGSTFRNYAMGWYRQAPGQERAFVATISSAGGTTYYADSVKGRFTISRDKAKNTLYVQMNSLNPEDTAVYYCAADQHSYRYGGYYYWGQGTQVTVSS,low polyreactivity
13,QVQLVESGGGLVQAGGSLRLSCAASGSTFTQYVMGWYRQAPGKERELVAAISDSGSTYYADSVKGRFTISRDNAKNTVYLQMNSLKPEDTAVYYCATDVLAWAPYDYWGQGTQVTVSS,low polyreactivity
14,QVQLVESGGGLVQAGGSLRLTCAASGSIFYYYAMGWYRQATGKERELVAAINSGVSTYYADSVKGRFTISRDNANNTVYLQMNSLKPDDTAVYYCAAPGHNLFGSWFSWTPDTYDYWGQGTQVTVSS,low polyreactivity
15,QVQLVDSGGGLVQAGGSLRLSFAASGRIFAGYAMGWYRQAPGKERELVASIRYSGGSTYADSVKGRFTISRDNAKKTVYLQMNSLKPEDTAVYYSADGVQSVYNGEPGIILEFDYWGQGTQVTVSS,low polyreactivity
16,QVQHVESGGGLVQAGGSLRLSCAASGFIFASYAMGWSRQPPGKERELVAAISWRGGSTYYADSVKGRFTISRDNAKNTLYLQMNSLKPVDTAVYYCNAYVYVCTGRGYDTLDYWGQGTQVTVSS,low polyreactivity
17,QVQLVESGGGLVQAGGSLRLSCAASGRTFAPYAMGWYRQAPGKERELVAAITYSGGSTYYADSVKGRFTISRDNAKNTVYLQMNSLKPEDTAVYYCAKVDSEYRQVIQQEDDYWGQGTQVTVSS,low polyreactivity
18,QVQLVESGGGLVQAGGSLRLSCAASGSTFGGNAMGWYRQAPGKERELVAAITIGGRTNYADSVKGRFTISRDYAKNTVYLQMNSLKPEDTAVYYCAKDRDQWQDYWGQGTQVTVSS,low polyreactivity
19,QVQLVESGGGLVQAGGSLRLSCAASGIIFVSYDMGWYRQAPGKERELVAAINRGGRTYYADSVKGRFTISRDNAKNTVYLQMNSLKPEDTAVYYCAAQFHFRPFSWTYDYWGQGTQVTVSS,high polyreactivity
20,QVQLVESGGGLVQAGGSLRLSCAASGIIFGGNVMGRYRQAPGKVRELVAAITWSGGTTYYADSVKGRFTISRDNAKNTVYLQMNSLKPEDTAVYYCAADRVYLDYVAGTYDYWGQGTQVTVSS,low polyreactivity
